Test results taken from patent publication US20260042848A1 (BIOLEGEND, published 2026).
Substitutions are numbered along the chain they refer to.

T1: hAXL recombinant protein (Sino Biological, Catalog #10279-H08H) (human, UniProt P30530 26-449)
T1 construct: Bought soluble protein; also called human AXL recombinant protein; recombinant human AXL protein
T1 sequence: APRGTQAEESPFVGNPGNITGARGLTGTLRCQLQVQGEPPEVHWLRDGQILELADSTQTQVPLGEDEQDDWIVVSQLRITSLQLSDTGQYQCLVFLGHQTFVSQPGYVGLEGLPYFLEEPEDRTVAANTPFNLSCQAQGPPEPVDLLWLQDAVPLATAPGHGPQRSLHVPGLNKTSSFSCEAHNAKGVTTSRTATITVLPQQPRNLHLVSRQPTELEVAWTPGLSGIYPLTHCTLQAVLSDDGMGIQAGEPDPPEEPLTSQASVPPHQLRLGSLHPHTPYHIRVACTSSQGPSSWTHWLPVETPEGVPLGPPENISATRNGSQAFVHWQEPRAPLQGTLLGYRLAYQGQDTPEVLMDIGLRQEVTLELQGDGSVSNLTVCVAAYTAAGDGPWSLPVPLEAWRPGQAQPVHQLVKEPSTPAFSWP

T2: Human AXLΔcyto-IG (human AXL lacking the cytoplasmic domain) on transfected BA/F3 cells (human, UniProt P30530 26-472, limits assumed)
T2 construct: GFP is co-expressed from the vector; also called huAXLΔcyto-IG; human AXL transfected BA/F3 cells
T2 sequence: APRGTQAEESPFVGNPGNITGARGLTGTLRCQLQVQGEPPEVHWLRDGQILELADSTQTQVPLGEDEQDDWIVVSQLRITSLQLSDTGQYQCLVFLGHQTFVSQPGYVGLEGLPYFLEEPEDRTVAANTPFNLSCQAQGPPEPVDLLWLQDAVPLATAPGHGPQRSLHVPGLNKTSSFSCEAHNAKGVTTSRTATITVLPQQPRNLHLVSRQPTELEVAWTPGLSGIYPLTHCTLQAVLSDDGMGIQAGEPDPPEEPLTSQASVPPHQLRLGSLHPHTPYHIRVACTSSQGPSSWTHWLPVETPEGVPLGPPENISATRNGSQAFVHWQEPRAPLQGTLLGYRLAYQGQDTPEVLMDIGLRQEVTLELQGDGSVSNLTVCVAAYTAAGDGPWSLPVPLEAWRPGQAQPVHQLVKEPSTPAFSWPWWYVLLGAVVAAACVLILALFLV

T3: native human AXL on non-transfected human cell lines (A-431, A-549, HeLa, MDA-MB-231, NCI-H1299) (human, UniProt P30530 26-894)
T3 construct: Endogenous AXL of carcinoma cell lines; also called human AXL receptor tyrosine kinase; AXL receptor
T3 sequence: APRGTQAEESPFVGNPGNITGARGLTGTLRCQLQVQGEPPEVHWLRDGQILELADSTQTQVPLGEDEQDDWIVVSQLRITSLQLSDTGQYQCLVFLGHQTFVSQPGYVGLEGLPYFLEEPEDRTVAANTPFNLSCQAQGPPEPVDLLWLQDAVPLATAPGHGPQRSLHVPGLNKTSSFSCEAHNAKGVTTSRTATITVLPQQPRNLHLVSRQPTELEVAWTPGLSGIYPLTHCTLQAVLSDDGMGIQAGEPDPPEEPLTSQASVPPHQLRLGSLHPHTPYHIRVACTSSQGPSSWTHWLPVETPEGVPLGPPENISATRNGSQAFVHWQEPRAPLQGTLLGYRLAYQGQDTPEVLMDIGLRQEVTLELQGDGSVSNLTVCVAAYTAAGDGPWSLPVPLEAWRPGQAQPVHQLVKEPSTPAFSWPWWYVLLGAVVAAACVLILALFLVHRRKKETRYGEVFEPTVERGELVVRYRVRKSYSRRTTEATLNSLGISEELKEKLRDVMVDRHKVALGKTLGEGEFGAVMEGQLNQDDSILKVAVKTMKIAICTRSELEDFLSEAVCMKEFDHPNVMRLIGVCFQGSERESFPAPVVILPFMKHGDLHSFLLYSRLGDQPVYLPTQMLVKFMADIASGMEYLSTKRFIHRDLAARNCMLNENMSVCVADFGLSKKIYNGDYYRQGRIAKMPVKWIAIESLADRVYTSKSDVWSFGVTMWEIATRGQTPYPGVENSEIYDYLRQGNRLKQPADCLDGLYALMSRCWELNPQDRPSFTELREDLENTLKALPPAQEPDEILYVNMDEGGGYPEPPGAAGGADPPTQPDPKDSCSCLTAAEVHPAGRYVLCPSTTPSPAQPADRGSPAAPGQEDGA

B1: AB1 (antibody, V domains shown)
VH: DVQLQESGPDLVKPSQSLSLTCTVTGYSITSAYSWHWIRQFPGNKLEWMGYIHYSGSTNYNPSLKSRISITRDTSKNQFFLQLNSVTTEDTATYYCARSLWFYAMDYWGQGTSVTVSS
VL: DVQITQSPSYLAASPGETITINCRASKSISKYLAWYQEKPGKTNKLLIYSGSTLQSGIPSRFSGSGSGTDFTLTISSLEPEDFAMYYCQQHNEYPWTFGGGTKLEIK
notes: Mouse hybridoma monoclonal; also called antibody 1; PU-conjugated AB1
B2: AB4 (antibody, V domains shown)
VH: B1 VH with N84S
VL: B1 VL with N22K, Q55H
notes: Mouse hybridoma monoclonal; also called antibody 4; PE-AB4
B3: AB3 (antibody, V domains shown)
VH: QIQLVQSGPELKKPGETVKISCKASGYTFTNYGMNWVKQAPGKGLKWMGWINTYIGEPTYADDFKGRFAFSLETSASTAYLQINNLKNEDMGTYFCARGTTFYAMDYWGQGTSVTVSS
VL: EIVLTQSPTTMAASPGEKITITCSASSSISSNYLHWYQQKPGFSPKLLIYRTSNLASGVPARFSGSGSGTSYSLTIGTMEAEDVATYYCQQGSSILTFGAGTKLELK
notes: Mouse hybridoma monoclonal; also called antibody 3; PE-AB3
B4: AB5 (antibody, V domains shown)
VH: B3 VH with I55T, G92A, T100D, T101R
VL: B3 VL with A61T, L96F, A100S, L106I
notes: Mouse hybridoma monoclonal; also called antibody 5; PE-AB5
B5: AB6 (antibody, V domains shown)
VH: EVNLVESGGGLVQPGGSLKLSCATSGFTFSDYYMYWVRQTPEKRLEWVAYISNGGGSTYYPDTVKGRFTISRDNAKNTLYLQMSRLKSEDTAMYYCARLHFYAMDYWGQGTSVTVSS
VL: DIVMTQSHKFMSTSVGDRVSITCKASQDVSTAVAWYQQKPGQSPKLLIYWASTRHTGVPDRFTGSGSGTDYTLTISSVQAEDLALYYCQQHYNTPFTFGSGTKLEIK
notes: Mouse hybridoma monoclonal; also called antibody 6; PE-AB6
B6: AB2 (antibody, V domains shown)
VH: B1 VH
VL: DIQMNQSPSSLSASLGDTITITCHASQNINVWLNWYQQKPGNIPKLLIYKASNLHTGVPSRFSGSGSGTGFTLTISSLQPEDIATYYCQQGQSYPLTFGGGTKLEIK
notes: Mouse hybridoma monoclonal; also called antibody 2; PE-AB2

Columns and labels:
[1] = molecular target: T1, hAXL recombinant protein (Sino …); assay: pre-incubation of antibody with soluble recombinant human AXL, then flow cytometry on human AXL-transfected BA/F3 cells (FIG. 3D)
Procedure: (§1) In each case, cell populations of interest were selected by setting and displaying gates (for visual comparison purposes) based on the corresponding isotype control.
(§2) PE conjugated mIgG1 and mIgG2a, or PU-IgG1 were used as controls. After incubation, 2×10⁶/100 μL of huAXLΔcyto-IG transfected BA/F3 cells were added to each tube, and cells were acquired on a BD Canto II and corresponding data was analyzed by FlowJo.

[2] = molecular target: mGypa (mouse Glycophorin A) on transfected BA/F3 cells (mouse, UniProt P14220 1-168); assay: flow cytometry on mGypa-transfected BA/F3 cells, anti-mouse IgG-APC secondary
[3] = molecular target: T2, Human AXLΔcyto-IG (human AXL lacking …); assay: flow cytometry on human AXL-transfected BA/F3 cells, anti-mouse IgG-APC secondary
Procedure: (§3) FIG. 1A depicts surface staining on BA/F3 cells transfected with human AXL, and FIG. 1B depicts surface staining on BA/F3 cells transfected with mGypa (mouse Glycophorin A) as a control. BA/F3 cells (IL-3 dependent mouse pro-B cell line) were used to eliminate the possibility of human proteins being expressed. The transfection efficiency was measured by GFP, which is used to visualize/identify cells that have been transfected and are expressing the vector. GFP (or FITC) on the x-axis identifies cells that are positive for GFP (i.e., cells that have been transfected). […] Cells were then washed and stained with a secondary antibody (anti-mouse IgG-APC).
(§4) In a first experiment, exemplary anti-human AXL antibodies were assessed on an IL-3 dependent murine pro B cell line (BA/F3, RIKEN CELL BANK, Cat #RCB4476), transfected with Human AXLΔcyto-IG (Ba/F3 cells were retrovirally transduced with human AXL lacking the cytoplasmic domain and GFP). […] Cells were then washed twice with FACS wash buffer and stained with anti-mouse IgG-APC secondary antibody for 15 minutes. Cells were washed with FACS buffer and analyzed on a BD Canto II and corresponding data was analyzed by FlowJo.

[4] = molecular target: T2, Human AXLΔcyto-IG (human AXL lacking …); assay: flow cytometry on Human AXLΔcyto-IG transfected BA/F3 cells, anti-mouse IgG-APC secondary
Procedure: as §3, §4

[5] = molecular target: T3, native human AXL on non-transfected …; assay: flow cytometry, PE conjugate on A-431, A-549, HeLa, MDA-MB-231 and NCI-H1299 cells
Excerpt: In contrast, the cell lines used for FIGS. 2F-2G (TH-29 and Jurkat, respectively) are known to be negative for human AXL and were thus used as negative controls.
Once cells reached 80% confluency, cells were detached from the flask using 0.25% Trypsin-0.1% EDTA and suspended in cell staining buffer. […] Cells were washed with FACS buffer and analyzed on a BD Canto II flow cytometer.

[6] = molecular target: T1, hAXL recombinant protein (Sino …); assay: pre-incubation of antibody with soluble recombinant human AXL, then flow cytometry on human AXL-transfected BA/F3 cells (FIG. 3B)
Procedure: as §1, §2

Row | Binder | binding result [1] | binding result [2] | binding result [3] | binding result [4] | binding result [5] | binding result [6]
1 | B1 | binds | no binding (tested: 1 ug (printed 'lug')) | binds |  |  | 
2 | B2 |  | no binding (tested: 1 ug (printed 'lug')) |  | binds | binds | binds
3 | B3 |  | no binding (tested: 1 ug (printed 'lug')) |  |  |  | 
4 | B4 |  | no binding (tested: 1 ug (printed 'lug')) |  | binds | binds | binds
5 | B5 |  | no binding (tested: 1 ug (printed 'lug')) |  | binds | binds | binds
6 | B6 |  | no binding (tested: 1 ug (printed 'lug')) |  |  |  | 
